Assay results as given in US9951359B2, “Heat-stable, FE-dependent alcohol dehydrogenase for aldehyde detoxification” (UT-BATTELLE, LLC, priority 2013, dated 2018).
Where two headings read alike, the source gives them in different places.

Key:
[1] = tested on: protein encoded by the Teth39_1597 locus (bdhA); assay: Proteome comparison of Teth39E grown in the presence or absence of furfural; assay type: cell-based, Thermoanaerobacter pseudethanolicus 39E; details: Teth39E grown in the presence of 15 mM furfural
Description: To identify the enzymes responsible for furfural and 5-HMF conversion, the proteomes were compared for strain Teth39E grown in the presence or absence of 15 mM furfural.

[2] = tested on: Thermoanaerobacter pseudethanolicus 39E (Teth39E); assay: Growth of Teth39E with furan aldehydes (optical density at 600 nm); assay type: cell-based; details: for specific growth rate: 65° C.; for IC50: Thermoanaerobacter pseudethanolicus, read-out: furan aldehyde concentration which resulted in 50% inhibition of growth (IC50)
Description: Teth39E (DSMZ 2355) was purchased from Deutsche Sammlung von Mikroorganismen and Zellkulturen GmbH (DSMZ). Anaerobic growth medium was prepared anaerobically by a modified Hungate technique and consisted of 4.5 mM KCl, 4.7 mM NH4Cl, 2.5 mM MgSO4.7H2O, 1.0 mM NaCl, 0.7 mM CaCl2.2H2O, […] resazurin, 2.8 mM cysteine-HCl, 6.0 mM NaHCO3, 1 mM potassium phosphate buffer (pH 6.8), 10 mM 3-(N-morpholino)-propanesulfonic acid (pH 6.8), 1× Wolfe's trace minerals, 1× Wolfe's vitamin supplement, 0.1% (w/v) yeast extract, and 40 mM glucose [Miller and Wolin (1974) Appl. Microbiol. 27:985-987; Wolin et al. (1963) J. Biol. Chem. 238:2882-2886]. Furan aldehydes were added from degassed concentrated stock solutions. Cultures were grown at 65° C. from a 1% inoculum in Balch tubes (10 mL) or 125 mL serum bottles (50 mL) Cell growth was monitored by optical density at 600 nm, either directly in the Balch tube using a Spectronic 200 spectrophotometer (Thermo Fisher Scientific, Waltham, Mass.) or as 200 μL samples transferred to a 96-well plate and read on a Synergy Mx plate reader (BioTek, Winooski, Vt.). All growth experiments were performed in triplicate.
Lower concentrations of furfural (10 and 20 mM) and 5-hydroxymethylfurfural (10 mM) stimulated growth of Teth39E, with increased cell yields after 12 h for both (see FIGS. 1A and 1B). […] The IC50 for 5-HMF was between 20 and 30 mM after both 12 and 24 h.

BdhA (Teth39_1597) [3] = assay: Optimal temperature and pH of purified BdhA enzyme (butyraldehyde, NADPH); assay type: biochemical, Thermoanaerobacter pseudethanolicus 39E
Description: The optimal temperature for BdhA activity was determined from purified enzyme as follows. A 1 liter culture of E. coli BL21 (DE3) harboring the pET30a-BdhA expression construct (see FIG. 6A) was grown to mid-log phase and induced with 0.4 mM IPTG and allowed to incubate for 16 h at 30° C. with shaking at 250 rpm. The induced cells were harvested via centrifugation at 5,000×g for 20 min at 4° C. and washed 3 times with 40 mL ice-cold phosphate buffered saline (PBS) at pH 7.2 and placed on ice. The cell pellet was resuspended in binding buffer (20 mM sodium phosphate, 500 mM NaCl, 20-40 mM imidazole, pH 7.4) containing 0.2 mg/mL lysozyme, 20 μg/mL DNAse, 1 mM MgCl2, 1 mM PMSF and stirred for 30 min at room temperature. The cells were then subjected to 5×2 min rounds of sonication (Branson Sonifier 450 with microtip, duty cycle at 30%) while kept in an ice water bath. The lysate was centrifuged at 7,500×g for 20 min at 4° C. and the supernatant was transferred to a new 50 mL conical tube. […] For determining the optimal temperature for BdhA, 1 mL assays containing 100 mM phosphate buffer (pH 7.5), 20 mM butyraldehyde, and 0.25 mM NADPH were monitored for loss of absorbance at 340 nm for 20 seconds at 30-90° C. in 5° C. intervals. […]
The optimum pH was also determined for BdhA by using butyraldehyde as the substrate and NADPH as the cofactor. […]

BdhA (Teth39_1597) [4] = assay: Aldehyde reductase enzyme assay with whole cell lysates of E. coli overexpressing BdhA (NAD(P)H oxidation at 340 nm); assay type: biochemical, Thermoanaerobacter pseudethanolicus 39E; details: for specific activity with NADPH as a cofactor / BdhA Aldehyde Activities (specific activity): whole cell lysate; for BdhA Aldehyde Activities (specific activity): 60° C.; for BdhA Aldehyde Activities (specific activity) / Specific activity: aerobic
Description: Teth39E genomic DNA was isolated using the Wizard Genomic DNA Purification kit (Promega, Madison, Wis.). The bdha gene was PCR amplified using Phusion polymerase (New England Biolabs, Ipswich, Mass.) and cloned into pET30a (EMD Millipore, Billerica, Mass.) behind 6× His- and S-tags. Expression plasmids were transformed in BL21 (DE3) E. coli according to the manufacturer's protocol (Invitrogen, Grand Island, N.Y.). Cells were grown in 50 mL 2×YT medium at 37° C. to OD600 of 0.8-1.0, then induced with 100 μM isopropyl-β-D-thiogalactopyranoside and switched to 30° C. for 16 h. Cells were harvested at 4° C. (3,000×g, 30 min), washed in 50 mL 100 mM sodium phosphate buffer, pH 7 (buffer A), and re-suspended in 5 mL buffer A. Enzyme assays were performed aerobically at 60° C. with whole cell lysates and specific activity was determined by measuring the change in absorbance at 340 nm due to oxidation of NADPH or NADH.
Cell suspension (450 μL) was added to 0.1 mm zirconia beads (300 μL) and vortexed 4×60 sec with 30 sec on ice in between. Samples were centrifuged (14,000×g, 2 min) and the resulting supernatant was used for enzyme assays.
For the enzyme assays, Buffer A (1 mL), 10 mM NAD(P)H (25 μL), and 400 mM aldehyde (50 μL) were added to a 2 mL quartz cuvette, sealed with a butyl stopper, and equilibrated to 60° C. Assays were read at 340 nm (DU 800) for 150 sec to establish a baseline slope before whole cell lysate was added (1-5 μL). Cuvettes were inverted once to mix and read an additional 450 sec. The decrease in absorbance over time was calculated and the baseline slope was subtracted. NAD(P)H concentration was determined using the extinction coefficient (NADH: 6220 M^−1 cm ^−1, NADPH: 6270 M^−1 cm^−1) and specific activity was calculated as the change in μmoles NAD(P)H/min/mg of whole cell lysate protein. Protein concentration was determined using the Bradford assay (Bio-Rad, Hercules, Calif.) with bovine serum albumin as a standard. Specific activity was measured for the pET30a vector (control) and overexpressed Teth39_1597 (BdhA) with acetaldehyde, butyraldehyde, isobutyraldhyde, furfural, and 5-HMF. Furfural was also assayed under anaerobic conditions. BdhA activity was compared to the vector-only control.

O=Cc1ccco1 [furfural]
expression of Teth39_1597 protein upregulated [1]: approximately 7 fold
specific growth rate ([2]; 10 mM furan aldehyde): 0.52 ± 0.03 h⁻¹
specific growth rate ([2]; 20 mM furan aldehyde): 0.43 ± 0.03 h⁻¹
IC50 ([2]; after 12 h): 30 mM
IC50 ([2]; after 24 h): 30 to 40 mM

O=Cc1ccc(CO)o1 [5-HMF, 5-hydroxymethyl furfural]
specific growth rate ([2]; 10 mM furan aldehyde): 0.51 ± 0.03 h⁻¹
IC50 ([2]; after 12 h): 20 to 30 mM
IC50 ([2]; after 24 h): 20 to 30 mM

B1: BdhA: heat-stable, NADPH- and iron-dependent alcohol dehydrogenase cloned from Thermoanaerobacter pseudethanolicus 39E (SEQ ID NO: 2) (protein, listed as Thermoanaerobacter pseudethanolicus)
chain: MMKFEFYNPTRLIFGAGSLGQLGKVVNQYGKKALLVIGGGSVKKSGAFDRAVASLKAAGVLVVEFSGVEPNPRLSTVVRASELAKKEACDVVIGMGGGSVMDASKVIAASVLYEGDPKDMLVRAGKAPRLPERALPIITVPTLAATGSEMNNGAVITIDDEGEKLKTFVQAEVLYPRVAVVDPELTMTVPKNHTAFGVCDIITHVTEGYFNGIDGTPLQDRFAEGVILTVLEWGPKAVSDGSDLEARTQVQWASIVALNGWVQVGTNGAYPVHMIEHTLSALYDIPHGAGLAVVNPAWMRFAARFRPERFAQFAQRIFGLTATGKDTLSLAMEGIDKFEEFLRSIGCPTRLSELGIGEITEEMLFRYAEETLKVLQDEEGRLPGRPSLRKEDIVEILRMAM
optimal temperature for BdhA activity (BdhA (Teth39_1597) [3]; 20 mM butyraldehyde, 0.25 mM NADPH, pH 7.5, 30-90° C.): 75 °C
optimum pH (optimal relative activity) (BdhA (Teth39_1597) [3]; butyraldehyde, NADPH, buffers pH 4-10): 8.0 pH units
activity above the vector control using NADH as the cofactor (BdhA (Teth39_1597) [4]; NADH as cofactor): No activity was detected
specific activity with NADPH as a cofactor (BdhA (Teth39_1597) [4]; butyraldehyde as substrate): at least 14 μmole/min/mg
activity against butyraldehyde (BdhA (Teth39_1597) [4]; butyraldehyde, NADPH): approximately 14.58±3.57 μmoles/min/mg
specific activity with NADPH as a cofactor (BdhA (Teth39_1597) [4]; expressed in E. coli, various aldehydes): at least 0.5 μmole/min/mg
BdhA Aldehyde Activities (specific activity) (BdhA (Teth39_1597) [4]; substrate 5-HMF, NADPH): 10.06 ± 0.80
BdhA Aldehyde Activities (specific activity) (BdhA (Teth39_1597) [4]; substrate acetaldehyde, NADPH): 4.54 ± 0.76
BdhA Aldehyde Activities (specific activity) (BdhA (Teth39_1597) [4]; substrate butyraldehyde, NADPH): 14.58 ± 3.57
BdhA Aldehyde Activities (specific activity) (BdhA (Teth39_1597) [4]; substrate furfural, NADPH): 4.97 ± 0.17
BdhA Aldehyde Activities (specific activity) (BdhA (Teth39_1597) [4]; substrate isobutyraldehyde, NADPH): 0.63 ± 0.29
Specific activity (BdhA (Teth39_1597) [4]; with 5-HMF, NADPH): 10.06±0.80 U
Specific activity (BdhA (Teth39_1597) [4]; with furfural, NADPH): 4.97±0.17 U
